Biological target: VanX^C78/157S
Test: SEC

VanX^C78/157S (enzyme) was tested, and the stoichiometry N was 2.
